Measured values reported in patent US20230383273.

Columns and labels:
Test in all cases: cleavage_in_vitro
[1] = system: T1, OMNI-58 (Collinsella sp. AM13-34); conditions: PAM NNNNCCA; TXTL
T1 sequence: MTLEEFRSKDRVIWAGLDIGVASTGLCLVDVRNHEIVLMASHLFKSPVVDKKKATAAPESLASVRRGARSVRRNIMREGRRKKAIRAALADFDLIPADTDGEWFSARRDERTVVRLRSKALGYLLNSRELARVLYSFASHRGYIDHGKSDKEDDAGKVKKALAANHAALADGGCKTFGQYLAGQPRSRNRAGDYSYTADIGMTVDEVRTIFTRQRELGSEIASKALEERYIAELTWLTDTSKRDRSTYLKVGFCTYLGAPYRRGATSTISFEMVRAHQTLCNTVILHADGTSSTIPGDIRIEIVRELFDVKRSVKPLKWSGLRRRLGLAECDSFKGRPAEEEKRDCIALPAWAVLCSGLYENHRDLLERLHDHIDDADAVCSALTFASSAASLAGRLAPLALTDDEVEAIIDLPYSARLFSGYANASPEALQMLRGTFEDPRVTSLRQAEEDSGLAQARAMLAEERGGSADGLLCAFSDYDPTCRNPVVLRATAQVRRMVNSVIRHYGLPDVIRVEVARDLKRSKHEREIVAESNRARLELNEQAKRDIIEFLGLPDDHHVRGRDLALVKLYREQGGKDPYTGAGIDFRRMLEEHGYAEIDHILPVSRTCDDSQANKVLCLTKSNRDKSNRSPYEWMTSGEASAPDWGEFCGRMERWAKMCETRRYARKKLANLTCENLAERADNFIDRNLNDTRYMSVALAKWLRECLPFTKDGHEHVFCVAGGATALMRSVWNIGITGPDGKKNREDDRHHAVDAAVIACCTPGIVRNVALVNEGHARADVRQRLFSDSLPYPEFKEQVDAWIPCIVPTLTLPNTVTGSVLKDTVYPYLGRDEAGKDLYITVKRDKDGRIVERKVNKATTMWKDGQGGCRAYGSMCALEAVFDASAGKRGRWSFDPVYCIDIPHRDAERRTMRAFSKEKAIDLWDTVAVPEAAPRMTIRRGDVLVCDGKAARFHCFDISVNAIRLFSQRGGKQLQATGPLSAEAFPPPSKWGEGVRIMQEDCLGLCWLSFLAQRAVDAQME

[2] = system: T2, OMNI-71 (Hyphobacterium sp. 2ED5); conditions: PAM NGG; TXTL
T2 sequence: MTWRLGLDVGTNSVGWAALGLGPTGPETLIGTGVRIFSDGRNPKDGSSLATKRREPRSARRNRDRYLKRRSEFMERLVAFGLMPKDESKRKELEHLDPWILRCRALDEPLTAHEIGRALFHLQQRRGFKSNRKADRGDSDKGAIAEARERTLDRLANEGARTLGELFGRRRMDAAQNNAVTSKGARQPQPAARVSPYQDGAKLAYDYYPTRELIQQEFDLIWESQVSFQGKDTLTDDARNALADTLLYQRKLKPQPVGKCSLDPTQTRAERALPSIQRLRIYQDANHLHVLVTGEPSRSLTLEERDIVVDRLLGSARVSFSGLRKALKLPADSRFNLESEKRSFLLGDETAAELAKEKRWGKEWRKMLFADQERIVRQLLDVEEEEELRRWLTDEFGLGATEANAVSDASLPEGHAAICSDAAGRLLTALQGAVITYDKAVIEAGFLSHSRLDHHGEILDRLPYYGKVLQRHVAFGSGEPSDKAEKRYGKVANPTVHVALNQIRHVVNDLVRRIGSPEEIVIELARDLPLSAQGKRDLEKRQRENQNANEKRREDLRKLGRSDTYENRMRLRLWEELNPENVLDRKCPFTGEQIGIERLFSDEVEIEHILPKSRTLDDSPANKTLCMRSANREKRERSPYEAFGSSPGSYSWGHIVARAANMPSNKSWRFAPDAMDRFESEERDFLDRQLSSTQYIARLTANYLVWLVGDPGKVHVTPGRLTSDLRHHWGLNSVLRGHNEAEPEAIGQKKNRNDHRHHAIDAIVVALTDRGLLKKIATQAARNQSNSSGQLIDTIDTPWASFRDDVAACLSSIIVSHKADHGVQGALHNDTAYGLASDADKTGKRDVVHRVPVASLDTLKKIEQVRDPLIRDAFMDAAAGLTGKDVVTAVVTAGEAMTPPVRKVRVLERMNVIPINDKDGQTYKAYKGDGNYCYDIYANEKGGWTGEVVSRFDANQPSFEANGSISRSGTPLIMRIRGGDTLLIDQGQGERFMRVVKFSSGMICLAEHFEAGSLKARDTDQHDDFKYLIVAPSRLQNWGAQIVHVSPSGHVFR

[3] = system: T3, OMNI-56 (Chryseobacterium sp. G0240); conditions: PAM NNRNGG; TXTL
T3 sequence: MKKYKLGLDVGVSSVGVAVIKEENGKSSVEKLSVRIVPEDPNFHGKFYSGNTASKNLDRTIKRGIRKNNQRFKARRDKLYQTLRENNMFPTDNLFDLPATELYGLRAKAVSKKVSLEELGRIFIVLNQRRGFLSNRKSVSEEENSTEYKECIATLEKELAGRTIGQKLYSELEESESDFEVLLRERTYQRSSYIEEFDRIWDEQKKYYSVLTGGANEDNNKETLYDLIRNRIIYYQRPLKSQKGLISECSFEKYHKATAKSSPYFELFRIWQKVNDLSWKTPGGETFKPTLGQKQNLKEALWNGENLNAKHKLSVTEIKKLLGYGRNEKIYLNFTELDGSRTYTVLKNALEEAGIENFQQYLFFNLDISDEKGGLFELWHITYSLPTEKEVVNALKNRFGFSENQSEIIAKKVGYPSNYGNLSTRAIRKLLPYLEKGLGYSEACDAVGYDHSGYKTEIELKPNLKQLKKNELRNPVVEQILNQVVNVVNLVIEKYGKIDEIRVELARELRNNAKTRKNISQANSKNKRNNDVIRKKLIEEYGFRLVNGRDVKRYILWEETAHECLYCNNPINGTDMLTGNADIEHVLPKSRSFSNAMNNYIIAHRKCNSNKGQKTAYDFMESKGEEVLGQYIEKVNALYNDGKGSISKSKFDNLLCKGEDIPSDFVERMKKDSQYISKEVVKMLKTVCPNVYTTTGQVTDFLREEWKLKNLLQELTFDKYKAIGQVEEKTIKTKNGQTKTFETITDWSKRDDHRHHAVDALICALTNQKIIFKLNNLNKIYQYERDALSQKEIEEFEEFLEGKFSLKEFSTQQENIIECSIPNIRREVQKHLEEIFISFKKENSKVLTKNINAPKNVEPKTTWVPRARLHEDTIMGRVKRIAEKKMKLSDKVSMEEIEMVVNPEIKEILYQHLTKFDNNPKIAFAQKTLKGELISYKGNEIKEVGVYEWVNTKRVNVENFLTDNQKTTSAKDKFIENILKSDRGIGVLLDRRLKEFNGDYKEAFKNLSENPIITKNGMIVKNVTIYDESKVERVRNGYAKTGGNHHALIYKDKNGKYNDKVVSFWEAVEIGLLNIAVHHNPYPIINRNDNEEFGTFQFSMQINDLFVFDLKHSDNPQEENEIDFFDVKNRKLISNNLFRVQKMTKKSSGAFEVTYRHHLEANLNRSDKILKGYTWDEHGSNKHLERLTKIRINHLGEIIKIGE

[4] = system: T4, OMNI-65 (Faecalibacterium sp. An192); conditions: PAM NNNVTA; TXTL
T4 sequence: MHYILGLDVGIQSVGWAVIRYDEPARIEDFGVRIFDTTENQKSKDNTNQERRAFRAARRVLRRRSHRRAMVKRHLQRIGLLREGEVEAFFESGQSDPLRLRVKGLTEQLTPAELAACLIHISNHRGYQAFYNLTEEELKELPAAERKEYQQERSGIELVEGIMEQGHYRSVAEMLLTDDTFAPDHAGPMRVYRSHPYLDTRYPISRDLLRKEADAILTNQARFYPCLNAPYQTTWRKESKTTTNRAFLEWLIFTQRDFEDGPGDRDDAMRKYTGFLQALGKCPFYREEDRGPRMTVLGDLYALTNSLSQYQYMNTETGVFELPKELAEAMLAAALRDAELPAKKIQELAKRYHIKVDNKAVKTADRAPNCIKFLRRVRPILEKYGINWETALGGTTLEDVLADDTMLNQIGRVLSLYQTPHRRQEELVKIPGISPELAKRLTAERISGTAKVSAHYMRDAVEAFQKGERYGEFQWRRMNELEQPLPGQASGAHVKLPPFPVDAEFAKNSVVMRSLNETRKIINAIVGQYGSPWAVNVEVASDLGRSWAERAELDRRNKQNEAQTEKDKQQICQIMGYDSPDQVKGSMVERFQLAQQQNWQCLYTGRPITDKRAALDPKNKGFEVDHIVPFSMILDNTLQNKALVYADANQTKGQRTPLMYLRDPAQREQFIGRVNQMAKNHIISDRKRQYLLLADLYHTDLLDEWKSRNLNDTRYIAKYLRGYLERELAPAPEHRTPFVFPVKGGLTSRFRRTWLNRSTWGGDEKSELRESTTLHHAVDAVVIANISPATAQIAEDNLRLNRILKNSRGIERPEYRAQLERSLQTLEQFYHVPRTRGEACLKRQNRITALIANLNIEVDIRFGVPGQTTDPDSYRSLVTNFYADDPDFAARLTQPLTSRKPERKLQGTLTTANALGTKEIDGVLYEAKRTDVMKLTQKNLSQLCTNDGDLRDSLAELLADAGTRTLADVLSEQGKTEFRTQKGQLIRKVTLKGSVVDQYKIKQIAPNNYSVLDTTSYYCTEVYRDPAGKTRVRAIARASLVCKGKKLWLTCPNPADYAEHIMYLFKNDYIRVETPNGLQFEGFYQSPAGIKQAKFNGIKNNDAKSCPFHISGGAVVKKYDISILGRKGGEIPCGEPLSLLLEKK

Sequence	activity (1-depletion score) [1]	activity (1-depletion score) [3]	activity (1-depletion score) [4]	also measured
GGAAGAGCAGAGCCUUGGUCUCGCCCUAGCGCGGAAAAACGUUUGGGCAAGAGGGCCCGUUAAAGACGGGUCACUCGCGGAGUAUAUCCCGCAGGGUGCUAUUCGCACUCUGCGGGUGAUCUCCUAUUCCCUCCUUUUUU / GGAAGAGCAGAGCCTTGGTCTCNNNNNNNN / NNNNNNNNGAGACCAAGGCTCTGCTCTTCC	0.86			
GGAAGAGCAGAGCCUUGGUCUCGCCCUAGCGCGGAAAAACGUUUGGGCAAGAGGGCCCGUUAAAGACGGGUCACUCGCGGAGUAUAUCCCGCAGGGUGCUUUUCGCACUCUGCGGGUGAUCUCCUUUUCCCUCCUUUUUU / GGAAGAGCAGAGCCTTGGTCTCNNNNNNNN / NNNNNNNNGAGACCAAGGCTCTGCTCTTCC	0.88			
GGAAGAGCAGAGCCUUGGUCUCGCCCUAGCGCGUUGGAAAAGUAACGUUUGGGCAAGAGGGCCCGUUAAAGACGGGUCACUCGCGGAGUAUAUCCCGCAGGGUGCUUUUCGCACUCUGCGGGUGAUCUCCUUUUCCCUCCUUUUUU / GGAAGAGCAGAGCCTTGGTCTCNNNNNNNN / NNNNNNNNGAGACCAAGGCTCTGCTCTTCC	0.93			
GGAAGAGCAGAGCCUUGGUCUCGUUCCGGUUGGAGAAAUCUUUCCGGUAACAAGGUUUAGACCACAAAAUGGAACGGCCUCUUCGGGGGUCGUUCUUUUUUU / GGAAGAGCAGAGCCTTGGTCTCNNNNNNNN / NNNNNNNNGAGACCAAGGCTCTGCTCTTCC				activity (1-depletion score) [2]: 0.96
GGAAGAGCAGAGCCUUGGUCUCGUUGUGAAUUGCUUUCAAAAUUUAUUAUCUUCGAAAUUGGAUUAUAAAUUUUGAAAGCAAUUCACAAUAAGGAUUAUUCCGUUGUGAAAACAUUUAAGCCCCCUCGUCUUACCAUACGGGGGAUUUUUU / GGAAGAGCAGAGCCTTGGTCTCNNNNNNNN / NNNNNNNNGAGACCAAGGCTCTGCTCTTCC		0.53		
GGAAGAGCAGAGCCUUGGUCUCGUUGUGAAUUGCUUUCAUAAUUUAUUAUCUUCGAAAUUGGAUUAUAAAUUAUGAAAGCAAUUCACAAUAAGGAUUAUUCCGUUGUGAAAACAUUUAAGCCCCCUCGUCUUACCAUACGGGGGAUUUUUU / GGAAGAGCAGAGCCTTGGTCTCNNNNNNNN / NNNNNNNNGAGACCAAGGCTCTGCTCTTCC		0.69		
GGAAGAGCAGAGCCUUGGUCUCGUUGUGAAUUGCUUUCGAAAGAAAGCAAUUCACAAUAAGGAUUAUUCCGUUGUGAAAACAUUUAAGCCCCCUCGUCUUACCAUACGGGGGAUUUUUU / GGAAGAGCAGAGCCTTGGTCTCNNNNNNNN / NNNNNNNNGAGACCAAGGCTCTGCTCTTCC		0.69		
GGAAGAGCAGAGCCUUGGUCUCGUUUUGGUUCUCUGAGAAACAGAAGUUCUAAGAUAAGGCUUUACGCCGCAGGGUAUGGUGGUAUCCCAAAUAUUCCACCAUUUGAUUGUAUCUGAAAGCGUCCGGUUCGGGCGCUUUUU / GGAAGAGCAGAGCCTTGGTCTCNNNNNNNN / NNNNNNNNGAGACCAAGGCTCTGCTCTTCC			0.94	
GGAAGAGCAGAGCCUUGGUCUCGUUUUGGUUCUCUGAUGGGAAACAUCAGAAGUUCUAAGAUAAGGCUUUACGCCGCAGGGUAUGGUGGUAUCCCAAAUAUUCCACCAUUUGAUUGUAUCUGAAAGCGUCCGGUUCGGGCGCUUUUU / GGAAGAGCAGAGCCTTGGTCTCNNNNNNNN / NNNNNNNNGAGACCAAGGCTCTGCTCTTCC			0.94	
GGAAGAGCAGAGCCUUGGUCUCGUUUUGGUUCUUCUGGAAACAGAAGUUCUAAGAUAAGGCUUUACGCCGCAGGGUAUGGUGGUAUCCCAAAUAUUCCACCAUUUGAUUGUAUCUGAAAGCGUCCGGUUCGGGCGCUUUUU / GGAAGAGCAGAGCCTTGGTCTCNNNNNNNN / NNNNNNNNGAGACCAAGGCTCTGCTCTTCC			0.93	
